Substrate: CC(=O)Oc1ccc([N+](=O)[O-])cc1
Assay: purified protein
Assay type: biochemical, Exiguobacterium antarcticum
Details: optimal conditions (optimal pH 7.0), free enzyme

B1: EaEst2 (Exiguobacterium antarcticum) (protein)
chain: MKITLPKPFFFEGGNRAVLLLHGFTGSSADVRMLGRYLQKHGYTSLAPQYKGHAAPPEELTKTGPADWWQDVLDGYEELKAKGYDEIAVCGLSLGGVMSLRLSMHRPVKAVIPMCAPAYIKSEDVMYAGVTEYAREFKKREGKSVDEIEQEMAVFEPMPTLKDLQALLKETRDSLEDVYAPTLVVQARNDHMINTDSANIIHDGVSALQKELIWYENSGHVITLDKEKETLHQDIHEFLDGLNWSH
notes: full-length gene in pET-28a (NheI/XhoI), N-terminal 6xHis tag, E. coli BL21(DE3); monomer; catalytic triad Ser93, Asp190, His220; motif GLSLG 91-95
  Km: 590 µM

Reference: PMC10418727, “Structural and Biochemical Insights into Bis(2-hydroxyethyl) Terephthalate Degrading Carboxylesterase Isolated from Psychrotrophic Bacterium Exiguobacterium antarcticum” (International Journal of Molecular Sciences, 2023)
